Reference: paper PMC3535264

What was measured:
[1] = molecular target: tetrasome (DNA-(H3-H4)2 tetramer complex) (Xenopus laevis) (UniProt P84233); test: FRET or BRET
[2] = molecular target: mouse Nap1 (mNap1) single-cysteine mutant labeled with Alexa 546-C5-maleimide (mouse) (UniProt P28656); test: other fluorescence titration

| Substance | Kd [1] [nM] | Kd [2] [nM] |
| --- | --- | --- |
| H2A-H2B_(A488) histone dimer (from UniProt P06897 1-130) (complex) | 0.8 |  |
| H2A_(A488)-H2B histone dimer (from UniProt P02281 1-126) (complex) | 0.7 |  |
| uH2A containing histone dimer (uH2A-H2B) (from UniProt P0CG48 1-76; P02281 1-126) (complex) |  | 0.5 |
| uH2B containing histone dimer (H2A-uH2B) (from UniProt P06897 1-130; P0CG48 1-76) (complex) |  | 0.4 |
| unmodified H2A-H2B histone dimer (from UniProt P06897 1-130; P02281 1-126) (complex) |  | 0.8 |
